Test results: patent US6355785

How the values were obtained:
[1] = biological target: HIV-1 gp120 (Human immunodeficiency virus 1) (UniProt P04578); test: competition; settings: ID50 for gp120, gp120-CD4 interaction
[2] = biological target: T1, SIV integrase (Simian immunodeficiency virus) (UniProt P05897); test: inhibition; settings: PS at first and last internucleoside linkages (pPT), 3'-OH; 3'-processing
T1 sequence: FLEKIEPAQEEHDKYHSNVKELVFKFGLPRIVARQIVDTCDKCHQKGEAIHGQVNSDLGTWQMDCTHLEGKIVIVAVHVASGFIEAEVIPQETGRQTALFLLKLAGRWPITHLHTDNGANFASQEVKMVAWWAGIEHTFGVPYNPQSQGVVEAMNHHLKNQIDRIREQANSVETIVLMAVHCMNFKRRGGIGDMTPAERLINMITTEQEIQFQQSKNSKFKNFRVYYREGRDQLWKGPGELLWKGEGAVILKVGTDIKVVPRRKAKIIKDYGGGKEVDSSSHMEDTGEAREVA

[3] = biological target: HIV-1 integrase wild-type (IN1-288) (Human immunodeficiency virus 1) (UniProt P12497); test: inhibition; settings: I, 3'-processing

GATCCATGTCAGTGACAC [1231 random GATC]
IC50 ([1]; phosphodiester, 3'-amine): > 100000 nM

GATCCATGTCAGTGACAC [1232 random GATC]
IC50 ([1]; PS all linkages, 3'-amine): > 10000 nM

GGGTGGGTGGGTGGGTGG [1173]
IC50 ([1]; phosphodiester, 3'-amine): > 100000 nM

GGGTGGGTGGGTGGGTGG [1174]
IC50 ([1]; PS all linkages, 3'-amine): 90 nM

GTGGTGGGTGGGTGGGT [T30177 (AR177)]
IC50 [2]: 420 nM

GTGGTGGGTGGGTGGGTGGTGGGTGGTGGTTGTGGGTGGGTGGTG [I100-07]
IC50 ([1]; phosphodiester, 3'-amine): 800 nM

GTGGTGGGTGGGTGGGTGGTGGGTGGTGGTTGTGGGTGGGTGGTG [I100-21]
IC50 ([1]; PS all linkages, 3'-amine): 70 nM

GTTGGGGGTTGTTGGTGGGGTGGTGG [I100-00]
IC50 ([1]; phosphodiester, 3'-propanolamine): 3500 nM

GTTGGGGGTTGTTGGTGGGGTGGTGG [I100-12]
IC50 ([1]; PS all linkages, 3'-amine): 80 nM

TCTTCCTCTCTCTACCCACGCTCIC [T30531 antisense GEM91 variant PT]
IC50 ([3]; PS all linkages, strand transfer 0.036): 30 nM

TCTTCCTCTCTCTACCCACGCTCIC [T30658 antisense GEM91 variant PD]
IC50 ([3]; all phosphodiester, strand transfer >0.5): > 500 nM

TCTTCCTCTCTCTACCCACGCTCIC [T30662 antisense GEM91 variant pPT]
IC50 ([3]; PS at first and last linkages (pPT), strand transfer >0.5): > 500 nM
